Measured values published in article PMC3763545 (Nucleic Acids Research, 2013).
Each block holds one molecule with its values, some of them ahead of it.

B1: human full-length SLIP1 (natural protein, UniProt A9UHW6 1-222, looked up)
chain: MGEPSREEYKIQSFDAETQQLLKTALKDPGAVDLEKVANVIVDHSLQDCVFSKEAGRMCYAIIQAESKQAGQSVFRRGLLNRLQQEYQAREQLRARSLQGWVCYVTFICNIFDYLRVNNMPMMALVNPVYDCLFRLAQPDSLSKEEEVDCLVLQLHRVGEQLEKMNGQRMDELFVLIRDGFLLPTGLSSLAQLLLLEIIEFRAAGWKTTPAAHKYYYSEVSD

Tests used:
Assay in all cases: ITC
[1] = target: zebrafish (Danio rerio) full-length SLIP1 (zebrafish (Danio rerio))
[2] = target: T1, human DBP5 f.l. (residues 1-479) (human, UniProt Q9UMR2 1-479)
T1 sequence (looked up): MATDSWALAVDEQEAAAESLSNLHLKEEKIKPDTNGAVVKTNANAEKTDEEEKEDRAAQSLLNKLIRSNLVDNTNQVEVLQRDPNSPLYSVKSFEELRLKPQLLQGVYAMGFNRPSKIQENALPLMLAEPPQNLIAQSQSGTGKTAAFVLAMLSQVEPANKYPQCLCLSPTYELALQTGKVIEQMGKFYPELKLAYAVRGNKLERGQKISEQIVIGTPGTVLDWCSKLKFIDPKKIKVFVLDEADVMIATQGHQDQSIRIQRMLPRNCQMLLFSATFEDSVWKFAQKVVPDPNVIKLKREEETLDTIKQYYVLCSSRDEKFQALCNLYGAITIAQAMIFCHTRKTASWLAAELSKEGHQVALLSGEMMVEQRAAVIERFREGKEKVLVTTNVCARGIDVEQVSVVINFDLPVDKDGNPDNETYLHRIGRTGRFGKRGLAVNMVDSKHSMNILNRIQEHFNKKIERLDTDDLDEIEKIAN

human full-length SLIP1 = target: B1

Kd [1]: 2 µM
Molecule: zebrafish DBP5 residues 1-32 (domain or fragment)

Molecule: B1
Kd [2]: 0.1 µM

Kd (human full-length SLIP1): ~1.1 µM
B2: human DBP5 residues 1-51 (domain or fragment, UniProt Q9UMR2 1-51, looked up)
chain: MATDSWALAVDEQEAAAESLSNLHLKEEKIKPDTNGAVVKTNANAEKTDEE
